Measured values: paper PMC8754639

T1: NONO (53-312) (UniProt Q15233 53-312)
T1 sequence: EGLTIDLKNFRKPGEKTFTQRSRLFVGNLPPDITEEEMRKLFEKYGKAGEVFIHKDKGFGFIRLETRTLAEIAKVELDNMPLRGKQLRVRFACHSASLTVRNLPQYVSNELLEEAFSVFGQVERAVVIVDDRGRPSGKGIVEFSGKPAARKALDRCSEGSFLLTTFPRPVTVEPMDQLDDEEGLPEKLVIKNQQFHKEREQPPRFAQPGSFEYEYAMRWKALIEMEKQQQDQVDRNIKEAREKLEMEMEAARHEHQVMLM

T2: DHX36 (RHAU) (UniProt Q9H2U1 1-1008)
T2 sequence: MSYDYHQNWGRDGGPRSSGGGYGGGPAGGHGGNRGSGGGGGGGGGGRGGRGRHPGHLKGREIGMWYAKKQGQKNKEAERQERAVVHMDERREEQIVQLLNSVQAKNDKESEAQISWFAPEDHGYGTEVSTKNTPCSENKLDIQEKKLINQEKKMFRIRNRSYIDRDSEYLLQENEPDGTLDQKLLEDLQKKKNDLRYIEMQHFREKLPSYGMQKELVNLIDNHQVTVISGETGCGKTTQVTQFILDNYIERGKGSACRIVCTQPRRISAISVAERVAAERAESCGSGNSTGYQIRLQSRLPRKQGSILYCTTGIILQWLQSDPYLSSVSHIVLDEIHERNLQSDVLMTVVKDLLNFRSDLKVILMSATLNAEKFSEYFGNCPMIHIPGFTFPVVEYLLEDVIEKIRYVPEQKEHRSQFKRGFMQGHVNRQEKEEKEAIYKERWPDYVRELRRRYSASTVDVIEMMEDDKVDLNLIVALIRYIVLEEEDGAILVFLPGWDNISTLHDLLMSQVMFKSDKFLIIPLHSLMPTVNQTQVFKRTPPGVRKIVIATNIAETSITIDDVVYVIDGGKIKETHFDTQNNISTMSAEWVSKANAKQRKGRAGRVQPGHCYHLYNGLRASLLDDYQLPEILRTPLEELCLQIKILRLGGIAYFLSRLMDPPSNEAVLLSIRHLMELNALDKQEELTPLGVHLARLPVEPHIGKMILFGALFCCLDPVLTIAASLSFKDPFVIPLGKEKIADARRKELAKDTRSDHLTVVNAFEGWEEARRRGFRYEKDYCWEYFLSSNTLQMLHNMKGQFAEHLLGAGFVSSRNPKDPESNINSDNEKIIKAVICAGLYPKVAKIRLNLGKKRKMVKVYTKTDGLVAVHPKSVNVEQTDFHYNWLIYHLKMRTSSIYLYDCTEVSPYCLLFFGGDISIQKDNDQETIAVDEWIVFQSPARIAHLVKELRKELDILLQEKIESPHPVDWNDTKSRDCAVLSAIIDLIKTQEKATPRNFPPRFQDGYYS

T3: RHAU53 peptide (UniProt Q9H2U1 53-105)
T3 sequence: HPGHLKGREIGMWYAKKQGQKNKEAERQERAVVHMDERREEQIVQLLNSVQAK


Assays:
NONO (53-312) [1] = biological target: T1, NONO (53-312); test: EMSA
NONO (53-312) [2] = biological target: T1, NONO (53-312); test: filter binding
DHX36 (RHAU) = biological target: T2, DHX36 (RHAU); test: MST
RHAU53 peptide = biological target: T3, RHAU53 peptide; test: MST competition

Binder | Kd (NONO (53-312) [1]) [nM] | binding result (NONO (53-312) [2]) | Kd (DHX36 (RHAU)) [nM] | IC50 (RHAU53 peptide) [nM]
AGGGGAGGGAAAGGGGGAAAGCGGGC (structured_RNA) [MALAT1 rG4_09 (FAM)] | 80.9 ± 18.1 |  |  | 
AGAAGAGAGAAAGAAAGAAAGCGAGC (ssRNA) [MALAT1 rG4_09 MUT (biotin)] |  | no binding |  | 
AGGGUGGGCUUUUGUUGAUGAGGGAGGGGA (structured_RNA) [MALAT1 rG4_04 (FAM)] | 46.9 ± 12.1 |  | 130 ± 16 | 621 ± 95.3
